According to the supplement of paper PMC5998384:

What was measured:
[1] = system: HeLa Kyoto; assay: solubility in G1/S (NP-40 vs SDS abundance) (log2 ratio); higher = more soluble; details: cell cycle stage: G1/S
[2] = system: HeLa Kyoto; assay: thermal stability score vs G1/S (z-score of summed log2 fold changes over temperatures); higher = more thermally stable than in G1/S
[3] = system: HeLa Kyoto; assay: solubility change mitosis vs G1/S (difference of NP-40 vs SDS log2 ratios) (log2 ratio difference); higher = more soluble in mitosis
[4] = system: HeLa Kyoto; assay: melting temperature (median over replicates), in situ; higher = more thermally stable
[5] = cell cycle stage: early G1 (4.5 h after nocodazole release)
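Wherever melting temperature (median over replicates), in situ is given: HeLa Kyoto cells synchronized by double thymidine or nocodazole block, proteins quantified by TMT10plex mass spectrometry, three independent biological replicates.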
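Wherever solubility change mitosis vs G1/S (difference of NP-40 vs SDS log2 ratios) is given: synchronized HeLa Kyoto cells (double thymidine block for G1/S, nocodazole release for mitosis), protein amounts in NP-40 versus SDS lysates quantified by mass spectrometry, three biological replicates.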
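Wherever solubility in G1/S (NP-40 vs SDS abundance) is given: HeLa Kyoto cells arrested at G1/S by double thymidine block, proteins quantified by TMT10plex mass spectrometry in mild NP-40 versus SDS extracts, three biological replicates.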
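Wherever thermal stability score vs G1/S (z-score of summed log2 fold changes over temperatures) is given: synchronized HeLa Kyoto cells, proteins quantified by TMT10plex mass spectrometry, three biological replicates, mitosis taken 0.5 h after nocodazole release, G1/S directly after double thymidine block.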

Sequence | solubility in G1/S (log2) [1] | thermal stability score [2, 5] | thermal stability score ([2]; cell cycle stage: mitosis) | solubility change mitosis (log2) [3] | melting temperature ([4]; cell cycle stage: G1/S) [°C] | melting temperature ([4]; cell cycle stage: mitosis) [°C]
MASPGIEVELLGKGHSDLGEVAPEIKASERRTAVAIADLEWREMEGDDCEFRYGDGTNEAQDNDFPTVERSRLQEMLSLLGLETYQVQKLSLQDSLQISFDSMKNWAPQVPKDLPWNFLRKLQALNADARNTTMVLDVLPDARPVEKESQMEEEIIYWDPADDLAADIYSFSELPTPDTPVNPLDLLCALLLSSDSFLQQEIALKMALCQFALPLVLPDSENHYHTFLLWAMRGIVRTWWSQPPRGMGSFREDSVVLSRAPAFAFVRMDVSSNSKSQLLNAVLSPGHRQWDCFWHRDLNLGTNAREISDGLVEISWFFPSGREDLDIFPEPVAFLNLRGDIGSHWLQFKLLTEISSAVFILTDNISKKEYKLLYSMKESTTKYYFILSPYRGKRNTNLRFLNKLIPVLKIDHSHVLVKVSSTDSDSFVKRIRAIVGNVLRAPCRRVSVEDMAHAARKLGLKVDEDCEECQKAKDRMERITRKIKDSDAYRRDELRLQGDPWRKAAQVEKEFCQLQWAVDPPEKHRAELRRRLLELRMQQNGHDPSSGVQEFISGISSPSLSEKQYFLRWMEWGLARVAQPRLRQPPETLLTLRPKHGGTTDVGEPLWPEPLGVEHFLREMGQFYEAESCLVEAGRLPAGQRRFAHFPGLASELLLTGLPLELIDGSTLSMPVRWVTGLLKELHVRLERRSRLVVLSTVGVPGTGKSTLLNTMFGLRFATGKSCGPRGAFMQLITVAEGFSQDLGCDHILVIDSGGLIGGALTSAGDRFELEASLATLLMGLSNVTVISLAETKDIPAAILHAFLRLEKTGHMPNYQFVYQNLHDVSVPGPRPRDKRQLLDPPGDLSRAAAQMEKQGDGFRALAGLAFCDPEKQHIWHIPGLWHGAPPMAAVSLAYSEAIFELKRCLLENIRNGLSNQNKNIQQLIELVRRL [URGCP] | -0.246 | 0.429 | 0.88 | -0.0805 | 49.3 | 49.8
MASPSRRLQTKPVITCFKSVLLIYTFIFWITGVILLAVGIWGKVSLENYFSLLNEKATNVPFVLIATGTVIILLGTFGCFATCRASAWMLKLYAMFLTLVFLVELVAAIVGFVFRHEIKNSFKNNYEKALKQYNSTGDYRSHAVDKIQNTLHCCGVTDYRDWTDTNYYSEKGFPKSCCKLEDCTPQRDADKVNNEGCFIKVMTIIESEMGVVAGISFGVACFQLIGIFLAYCLSRAITNNQYEIV [TSPAN6] | -0.201 | 0.413 | -2.28 | 2.55e-05 | 58.9 | 55.8
MASPVAAQAGKLLRALALRPRFLAAGSQAVQLTSRRWLNLQEYQSKKLMSDNGVRVQRFFVADTANEALEAAKRLNAKEIVLKAQILAGGRGKGVFNSGLKGGVHLTKDPNVVGQLAKQMIGYNLATKQTPKEGVKVNKVMVAEALDISRETYLAILMDRSCNGPVLVGSPQGGVDIEEVAASNPELIFKEQIDIFEGIKDSQAQRMAENLGFVGPLKSQAADQITKLYNLFLKIDATQVEVNPFGETPEGQVVCFDAKINFDDNAEFRQKDIFAMDDKSENEPIENEAAKYDLKYIGLDGNIACFVNGAGLAMATCDIIFLNGGKPANFLDLGGGVKEAQVYQAFKLLTADPKVEAILVNIFGGIVNCAIIANGITKACRELELKVPLVVRLEGTNVQEAQKILNNSGLPITSAIDLEDAAKKAVASVAKK [SUCLG2] | 0.383 | 0.0772 | 0.0477 | -0.104 | 51.3 | 51.2
MASQPPPPPKPWETRRIPGAGPGPGPGPTFQSADLGPTLMTRPGQPALTRVPPPILPRPSQQTGSSSVNTFRPAYSSFSSGYGAYGNSFYGGYSPYSYGYNGLGYNRLRVDDLPPSRFVQQAEESSRGAFQSIESIVHAFASVSMMMDATFSAVYNSFRAVLDVANHFSRLKIHFTKVFSAFALVRTIRYLYRRLQRMLGLRRGSENEDLWAESEGTVACLGAEDRAATSAKSWPIFLFFAVILGGPYLIWKLLSTHSDEVTDSINWASGEDDHVVARAEYDFAAVSEEEISFRAGDMLNLALKEQQPKVRGWLLASLDGQTTGLIPANYVKILGKRKGRKTVESSKVSKQQQSFTNPTLTKGATVADSLDEQEAAFESVFVETNKVPVAPDSIGKDGEKQDL [PEX13] | -0.182 | -2.51 | -2.78 | 0.116 | 53.5 | 53.4
MASSEQAEQPSQPSSTPGSENVLPREPLIATAVKFLQNSRVRQSPLATRRAFLKKKGLTDEEIDMAFQQSGTAADEPSSLGPATQVVPVQPPHLISQPYSPAGSRWRDYGALAIIMAGIAFGFHQLYKKYLLPLILGGREDRKQLERMEAGLSELSGSVAQTVTQLQTTLASVQELLIQQQQKIQELAHELAAAKATTSTNWILESQNINELKSEINSLKGLLLNRRQFPPSPSAPKIPSWQIPVKSPSPSSPAAVNHHSSSDISPVSNESTSSSPGKEGHSPEGSTVTYHLLGPQEEGEGVVDVKGQVRMEVQGEEEKREDKEDEEDEEDDDVSHVDEEDCLGVQREDRRGGDGQINEQVEKLRRPEGASNESERD [PEX14] | 0.332 | 0.978 | 1.36 | 0.164 | 53.2 | 53.6
MASTTSTKKMMEEATCSICLSLMTNPVSINCGHSYCHLCITDFFKNPSQKQLRQETFCCPQCRAPFHMDSLRPNKQLGSLIEALKETDQEMSCEEHGEQFHLFCEDEGQLICWRCERAPQHKGHTTALVEDVCQGYKEKLQKAVTKLKQLEDRCTEQKLSTAMRITKWKEKVQIQRQKIRSDFKNLQCFLHEEEKSYLWRLEKEEQQTLSRLRDYEAGLGLKSNELKSHILELEEKCQGSAQKLLQNVNDTLSRSWAVKLETSEAVSLELHTMCNVSKLYFDVKKMLRSHQVSVTLDPDTAHHELILSEDRRQVTRGYTQENQDTSSRRFTAFPCVLGCEGFTSGRRYFEVDVGEGTGWDLGVCMENVQRGTGMKQEPQSGFWTLRLCKKKGYVALTSPPTSLHLHEQPLLVGIFLDYEAGVVSFYNGNTGCHIFTFPKASFSDTLRPYFQVYQYSPLFLPPPGD [TRIM38] | -0.661 | -0.0637 | -0.487 | 0.155 | – | 48.8
MASVAAARAVPVGSGLRGLQRTLPLVVILGATGTGKSTLALQLGQRLGGEIVSADSMQVYEGLDIITNKVSAQEQRICRHHMISFVDPLVTNYTVVDFRNRATALIEDIFARDKIPIVVGGTNYYIESLLWKVLVNTKPQEMGTEKVIDRKVELEKEDGLVLHKRLSQVDPEMAAKLHPHDKRKVARSLQVFEETGISHSEFLHRQHTEEGGGPLGGPLKFSNPCILWLHADQAVLDERLDKRVDDMLAAGLLEELRDFHRRYNQKNVSENSQDYQHGIFQSIGFKEFHEYLITEGKCTLETSNQLLKKGIEALKQVTKRYARKQNRWVKNRFLSRPGPIVPPVYGLEVSDVSKWEESVLEPALEIVQSFIQGHKPTATPIKMPYNEAENKRSYHLCDLCDRIIIGDREWAAHIKSKSHLNQLKKRRRLDSDAVNTIESQSVSPDHNKEPKEKGSPGQNDQELKCSV [TRIT1] | 0.0861 | -0.00673 | 0.208 | -0.137 | 53.3 | 49.1
MASVAVDPQPSVVTRVVNLPLVSSTYDLMSSAYLSTKDQYPYLKSVCEMAENGVKTITSVAMTSALPIIQKLEPQIAVANTYACKGLDRIEERLPILNQPSTQIVANAKGAVTGAKDAVTTTVTGAKDSVASTITGVMDKTKGAVTGSVEKTKSVVSGSINTVLGSRMMQLVSSGVENALTKSELLVEQYLPLTEEELEKEAKKVEGFDLVQKPSYYVRLGSLSTKLHSRAYQQALSRVKEAKQKSQQTISQLHSTVHLIEFARKNVYSANQKIQDAQDKLYLSWVEWKRSIGYDDTDESHCAEHIESRTLAIARNLTQQLQTTCHTLLSNIQGVPQNIQDQAKHMGVMAGDIYSVFRNAASFKEVSDSLLTSSKGQLQKMKESLDDVMDYLVNNTPLNWLVGPFYPQLTESQNAQDQGAEMDKSSQETQRSEHKTH [PLIN2] | 0.307 | 0.285 | 0.347 | 0.0233 | 53.2 | 53.3
MASVVLPSGSQCAAAAAAAAPPGLRLRLLLLLFSAAALIPTGDGQNLFTKDVTVIEGEVATISCQVNKSDDSVIQLLNPNRQTIYFRDFRPLKDSRFQLLNFSSSELKVSLTNVSISDEGRYFCQLYTDPPQESYTTITVLVPPRNLMIDIQKDTAVEGEEIEVNCTAMASKPATTIRWFKGNTELKGKSEVEEWSDMYTVTSQLMLKVHKEDDGVPVICQVEHPAVTGNLQTQRYLEVQYKPQVHIQMTYPLQGLTREGDALELTCEAIGKPQPVMVTWVRVDDEMPQHAVLSGPNLFINNLNKTDNGTYRCEASNIVGKAHSDYMLYVYDPPTTIPPPTTTTTTTTTTTTTILTIITDSRAGEEGSIRAVDHAVIGGVVAVVVFAMLCLLIILGRYFARHKGTYFTHEAKGADDAADADTAIINAEGGQNNSEEKKEYFI [CADM1] | -0.145 | 0.625 | 0.622 | -0.0334 | 61.3 | 58.9
MASVWQRLGFYASLLKRQLNGGPDVIKWERRVIPGCTRSIYSATGKWTKEYTLQTRKDVEKWWHQRIKEQASKISEADKSKPKFYVLSMFPYPSGKLHMGHVRVYTISDTIARFQKMRGMQVINPMGWDAFGLPAENAAVERNLHPQSWTQSNIKHMRKQLDRLGLCFSWDREITTCLPDYYKWTQYLFIKLYEAGLAYQKEALVNWDPVDQTVLANEQVDEHGCSWRSGAKVEQKYLRQWFIKTTAYAKAMQDALADLPEWYGIKGMQAHWIGDCVGCHLDFTLKVHGQATGEKLTAYTATPEAIYGTSHVAISPSHRLLHGHSSLKEALRMALVPGKDCLTPVMAVNMLTQQEVPVVILAKADLEGSLDSKIGIPSTSSEDTILAQTLGLAYSEVIETLPDGTERLSSSAEFTGMTRQDAFLALTQKARGKRVGGDVTSDKLKDWLISRQRYWGTPIPIVHCPVCGPTPVPLEDLPVTLPNIASFTGKGGPPLAMASEWVNCSCPRCKGAAKRETDTMDTFVDSAWYYFRYTDPHNPHSPFNTAVADYWMPVDLYIGGKEHAVMHLFYARFFSHFCHDQKMVKHREPFHKLLAQGLIKGQTFRLPSGQYLQREEVDLTGSVPVHAKTKEKLEVTWEKMSKSKHNGVDPEEVVEQYGIDTIRLYILFAAPPEKDILWDVKTDALPGVLRWQQRLWTLTTRFIEARASGKSPQPQLLSNKEKAEARKLWEYKNSVISQVTTHFTEDFSLNSAISQLMGLSNALSQASQSVILHSPEFEDALCALMVMAAPLAPHVTSEIWAGLALVPRKLCAHYTWDASVLLQAWPAVDPEFLQQPEVVQMAVLINNKACGKIPVPQQVARDQDKVHEFVLQSELGVRLLQGRSIKKSFLSPRTALINFLVQD [LARS2] | -0.045 | 0.0823 | 0.851 | -0.0972 | 49.7 | 49.9
MASYPYRQGCPGAAGQAPGAPPGSYYPGPPNSGGQYGSGLPPGGGYGGPAPGGPYGPPAGGGPYGHPNPGMFPSGTPGGPYGGAAPGGPYGQPPPSSYGAQQPGLYGQGGAPPNVDPEAYSWFQSVDSDHSGYISMKELKQALVNCNWSSFNDETCLMMINMFDKTKSGRIDVYGFSALWKFIQQWKNLFQQYDRDRSGSISYTELQQALSQMGYNLSPQFTQLLVSRYCPRSANPAMQLDRFIQVCTQLQVLTEAFREKDTAVQGNIRLSFEDFVTMTASRML [PEF1] | -0.126 | -1.46 | -1.2 | 0.345 | 53.5 | 53.2
